Tests used:
[1] = molecular target: T1, CEACAM5 (CD66e) on tumour cells (human, UniProt P06731 35-685, glycosylated (natural, as on tumour cells)); test: flow cytometry on Lovo monoclonal clone 7-2, fluorescent secondary antibody
T1 construct: whole, on cells; One molecule for CEACAM5 on all three cell lines; the cell line is named under assay; also called natural CEACAM5 antigen; Lovo cells
T1 sequence (looked up): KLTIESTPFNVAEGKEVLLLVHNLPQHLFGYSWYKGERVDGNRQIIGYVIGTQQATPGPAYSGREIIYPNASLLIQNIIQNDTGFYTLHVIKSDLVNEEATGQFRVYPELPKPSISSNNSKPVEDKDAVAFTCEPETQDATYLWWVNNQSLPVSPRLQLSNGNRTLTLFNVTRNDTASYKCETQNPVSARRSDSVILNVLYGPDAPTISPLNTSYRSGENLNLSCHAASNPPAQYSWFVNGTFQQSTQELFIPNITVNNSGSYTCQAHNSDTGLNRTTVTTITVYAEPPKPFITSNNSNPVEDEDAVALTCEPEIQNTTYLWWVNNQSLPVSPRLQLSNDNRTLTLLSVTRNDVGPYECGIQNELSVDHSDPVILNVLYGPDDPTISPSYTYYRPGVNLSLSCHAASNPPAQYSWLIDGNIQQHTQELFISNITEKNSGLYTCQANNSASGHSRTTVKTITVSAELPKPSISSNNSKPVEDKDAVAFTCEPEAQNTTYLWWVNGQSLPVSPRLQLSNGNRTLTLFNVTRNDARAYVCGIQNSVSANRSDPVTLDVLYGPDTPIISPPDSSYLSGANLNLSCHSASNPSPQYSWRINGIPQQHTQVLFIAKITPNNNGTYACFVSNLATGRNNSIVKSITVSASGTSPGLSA
Protocol: (§1) After labeling, anti-mouse Fc-PE fluorescence-labeled secondary antibody was added, sorted into 96-well plate by BD FACS Aria, after monoclonal culture was carried out, MN14 was used to detect the expression of monoclonal CEACAM5, and the results were as follows: […]

[2] = molecular target: T1, CEACAM5 (CD66e) on tumour cells; test: flow cytometry on Lovo monoclonal clone 6-1, fluorescent secondary antibody
Protocol: as §1

[3] = molecular target: T1, CEACAM5 (CD66e) on tumour cells; test: flow cytometry on Lovo monoclonal clone 8-1, fluorescent secondary antibody
Protocol: as §1

[4] = molecular target: T1, CEACAM5 (CD66e) on tumour cells; test: flow cytometry on Lovo monoclonal clone 3-2, fluorescent secondary antibody
Protocol: as §1

[5] = molecular target: T1, CEACAM5 (CD66e) on tumour cells; test: flow cytometry on Lovo monoclonal clone 6-2, fluorescent secondary antibody
Protocol: as §1

[6] = molecular target: T1, CEACAM5 (CD66e) on tumour cells; test: flow cytometry on Lovo monoclonal clone 5-2, fluorescent secondary antibody
Protocol: as §1

[7] = molecular target: T1, CEACAM5 (CD66e) on tumour cells; test: flow cytometry on Lovo monoclonal clone 2-2, fluorescent secondary antibody
Protocol: as §1

[8] = molecular target: T1, CEACAM5 (CD66e) on tumour cells; test: flow cytometry on Lovo monoclonal clone 4-1, fluorescent secondary antibody
Protocol: as §1

[9] = molecular target: T1, CEACAM5 (CD66e) on tumour cells; test: flow cytometry on Lovo monoclonal clone 2-1, fluorescent secondary antibody
Protocol: as §1

[10] = molecular target: T1, CEACAM5 (CD66e) on tumour cells; test: flow cytometry on Lovo monoclonal clone 1-1, fluorescent secondary antibody
Protocol: as §1

[11] = molecular target: T1, CEACAM5 (CD66e) on tumour cells; test: flow cytometry on Lovo monoclonal clone 4-2, fluorescent secondary antibody
Protocol: as §1

[12] = molecular target: T1, CEACAM5 (CD66e) on tumour cells; test: flow cytometry on Lovo monoclonal clone 7-1, fluorescent secondary antibody
Protocol: as §1

[13] = molecular target: T1, CEACAM5 (CD66e) on tumour cells; test: flow cytometry on Lovo monoclonal clone 3-1, fluorescent secondary antibody
Protocol: as §1

[14] = molecular target: T1, CEACAM5 (CD66e) on tumour cells; test: flow cytometry on Lovo monoclonal clone 8-2, fluorescent secondary antibody
Protocol: as §1

[15] = molecular target: T1, CEACAM5 (CD66e) on tumour cells; test: flow cytometry on Lovo monoclonal clone 1-2, fluorescent secondary antibody
Protocol: as §1

[16] = molecular target: T1, CEACAM5 (CD66e) on tumour cells; test: flow cytometry on Lovo monoclonal clone 5-1, fluorescent secondary antibody
Protocol: as §1

[17] = molecular target: T1, CEACAM5 (CD66e) on tumour cells; test: flow cytometry on LS174T cells, anti-human IgG Fc-APC
Protocol: (§2) After the cells were digested with TrypLE, they were centrifuged and resuspended in DPBS solution containing 2% BSA (FACS buffer solution, 4° C.), and added into a U-bottom 96-well plate, 5×10⁵/100 μl/well, and antibody diluted in concentration gradient was added, incubated at 4° C. for 1 hour, the supernatant was discarded after centrifugation; 100 μl of solution containing anti-human IgG Fc-APC secondary antibody was added and incubated at 4° C. for 1 hour, washing was performed once with FACS buffer, resuspending was performed in 200 μl FACS buffer, and the fluorescence signal value was read on BD Cantoll.

[18] = molecular target: T2, recombinant CEACAM5 antigen (Sinobiological, 11077-H08H) (UniProt P06731 35-685); test: ELISA, coated recombinant CEACAM5-His 1 µg/ml, anti-human IgG Fc-HRP
T2 construct: Bought protein; also called CEACAM5-His recombinant protein; CEACAM5-His antigen; not shown: His tag
T2 sequence (looked up): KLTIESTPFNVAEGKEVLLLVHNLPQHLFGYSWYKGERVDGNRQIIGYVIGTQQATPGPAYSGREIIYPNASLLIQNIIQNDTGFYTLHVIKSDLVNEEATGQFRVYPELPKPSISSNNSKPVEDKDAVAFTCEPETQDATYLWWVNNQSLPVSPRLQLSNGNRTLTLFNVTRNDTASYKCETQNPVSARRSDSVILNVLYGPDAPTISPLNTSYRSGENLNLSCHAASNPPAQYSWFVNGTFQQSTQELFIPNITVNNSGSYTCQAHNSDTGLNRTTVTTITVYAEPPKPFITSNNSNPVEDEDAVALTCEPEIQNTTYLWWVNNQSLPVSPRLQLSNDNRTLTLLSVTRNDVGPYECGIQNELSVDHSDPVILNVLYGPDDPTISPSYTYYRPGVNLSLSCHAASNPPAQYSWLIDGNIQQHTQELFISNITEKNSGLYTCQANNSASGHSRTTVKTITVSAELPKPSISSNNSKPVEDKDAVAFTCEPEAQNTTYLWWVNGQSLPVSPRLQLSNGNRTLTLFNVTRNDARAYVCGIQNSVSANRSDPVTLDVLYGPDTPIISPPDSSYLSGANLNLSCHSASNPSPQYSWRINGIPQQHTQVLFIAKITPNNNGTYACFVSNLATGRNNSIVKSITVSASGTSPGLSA
Protocol: The recombinant CEACAM5 antigen (Sinobiological, 11077-H08H) was diluted to 1 μg/ml with DPBS solution, added to a 96-well plate, 100 μl per well, and coated overnight at 2-8° C.; the coating solution was discarded, washing was performed twice with PBS solution, PBS solution containing 2% BSA was added, and blocked at room temperature for 2 hours; the blocking solution was discarded, the antibody diluted in concentration gradient was added, and incubated at 37° C. for 1 hour; the antibody solution was discarded, and washing was performed for 4 times with PBS solution containing 0.05% Tween 20 (PBST solution); anti-human IgG Fc-HRP secondary antibody was added and incubated at 37° C. for 30 minutes; washing was performed for 4 times with PBST solution, TMB chromogenic substrate was added, color development was performed for 5-10 minutes, and the reaction was terminated with equal volume of 1M H₂SO₄; the absorbance at 450 nm was read on a microplate reader.

[19] = molecular target: T1, CEACAM5 (CD66e) on tumour cells; test: flow cytometry on KATO3 cells, anti-human IgG Fc-APC
Protocol: as §2

B1: anti-CEACAM5 antibody hMN14 (antibody, human IgG1, kappa, V domains shown)
VH: EVQLVESGGGVVQPGRSLRLSCSASGFDFTTYWMSWVRQAPGKGLEWIGEIHPDSSTINYAPSLKDRFTISRDNAKNTLFLQMDSLRPEDTGVYFCASLYFGFPWFAYWGQGTPVTVSS
VL: DIQLTQSPSSLSASVGDRVTITCKASQDVGTSVAWYQQKPGKAPKLLIYWTSTRHTGVPSRFSGSGSGTDFTFTISSLQPEDIATYYCQQYSLYRSFGQGTKVEIKR
notes: T0002 prints whole heavy and light chains under the labels 'hMN14 VH' and 'hMN14 VL'
CEACAM5 positive ratio, % [1]: 96.9% | CEACAM5 positive ratio, % [2]: 98.6% | CEACAM5 positive ratio, % [3]: 97.9% | CEACAM5 positive ratio, % [4]: 95.9% | CEACAM5 positive ratio, % [5]: 88.1% | CEACAM5 positive ratio, % [6]: 96.9% | CEACAM5 positive ratio, % [7]: 96.4% | CEACAM5 positive ratio, % [8]: 93.7% | CEACAM5 positive ratio, % [9]: 95.6% | CEACAM5 positive ratio, % [10]: 90.5% | CEACAM5 positive ratio, % [11]: 82.7% | CEACAM5 positive ratio, % [12]: 93.9% | CEACAM5 positive ratio, % [13]: 97.8% | CEACAM5 positive ratio, % [14]: 96.8% | CEACAM5 positive ratio, % [15]: 95.6% | CEACAM5 positive ratio, % [16]: 76.6%

B2: M7 (11B6) chimeric recombinant antibody (antibody, V domains shown)
VH: EVQLQQSGAELVRPGASVKLSCTVSGFNIKDDYMHWVKQRPEQGLEWIGWIDPENGDTEYASKFQGKATITADTSSNSAYLQLSSLTSEDTAVYYCTFIYYVNPHYYAMDYWGQGTSVTVSS
VL: QIVLTQSPAIMSASPGEKVTITCSATSSVSYMHWFQQKPGTSPKLWIYSTSNLASGVPARFSGSGSGTSYSLTISRVEAEDAATYYCQQRSSYPLTFGAGTKLELK
EC50 [17]: 1.9 µg/mL | EC50 [18]: 0.008 µg/mL | EC50 [19]: 2.6 µg/mL

B3: M17 (6A8) chimeric recombinant antibody (antibody, V domains shown)
VH: EVQLQQSGAELVRPGASVKLSCTASGFNIKDDYMHWVKQRPEQGLEWIGWIDPENGDTEYASKFQGKATITADTSSNTAYLLLSSLTSEDTAVYYCTTIYYYGSRGAMDYWGQGTSVTVSS
VL: QIVLTQSPAIMSASPGEKVTITCSASSSVSYMHWFQQKPGTSPKLWIYTTSTLASGVPARFSGSGSGTSYFLTISRMEAEDAATYYCHQRSSYPLTFGAGTKLELK
EC50 [17]: 1.5 µg/mL | EC50 [18]: 0.013 µg/mL | EC50 [19]: 2.7 µg/mL

B4: M18 (7G1) chimeric recombinant antibody (antibody, V domains shown)
VH: QIQLVQSGPELKKPGETVKISCKASGYTFTTYGMTWVKQAPGKGLKWMGWINTYSGVPTYIDDFKGRFAFSLETSASTAYLQINNLKNEDTATYFCGRKDLLGFMDYWGQGTSVTVSS
VL: DIQMTQSPSSLSASLGGKVTITCKTSQDINKFMAWYQHKPGKGPRLLIRYTSTLQPGIPSRFSGSGSGRDYSFSIRNLEPEDIATYYCLQYDDLTWTFGGGTKLEI
EC50 [17]: 11.9 µg/mL | EC50 [18]: 0.016 µg/mL | EC50 [19]: 13.9 µg/mL

Reference: patent US20230331862A1 (SHANGHAI GENBASE BIOTECHNOLOGY, published 2023)
